Results published in paper PMC7346168, “Redox Conformation-Specific Protein–Protein Interactions of the 2-Cysteine Peroxiredoxin in Arabidopsis” (Antioxidants, 2020).

T1: 2-CysPRXA C54S (pseudo-reduced variant) (Arabidopsis, UniProt Q96291 66-266, C54S)
T1 construct: 2-Cys peroxiredoxin A, Arabidopsis; source: E. coli BL21, recombinant (pET28a)
T1 sequence (looked up): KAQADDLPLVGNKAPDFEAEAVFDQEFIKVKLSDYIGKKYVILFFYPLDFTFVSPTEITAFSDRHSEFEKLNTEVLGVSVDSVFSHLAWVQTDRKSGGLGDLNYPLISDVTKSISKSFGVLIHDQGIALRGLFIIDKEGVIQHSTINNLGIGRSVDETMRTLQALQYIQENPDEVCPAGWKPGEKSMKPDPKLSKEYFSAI

T2: 2-CysPRXA C54S (pseudo-reduced variant) (Arabidopsis, UniProt Q96291 66-266, C54S)
T2 sequence: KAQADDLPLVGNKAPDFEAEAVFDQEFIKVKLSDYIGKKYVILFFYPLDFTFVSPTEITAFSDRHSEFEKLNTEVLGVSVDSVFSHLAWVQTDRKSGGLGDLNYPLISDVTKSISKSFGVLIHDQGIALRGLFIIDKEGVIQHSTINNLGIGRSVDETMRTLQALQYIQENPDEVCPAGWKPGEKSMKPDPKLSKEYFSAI

T3: 2-cysteine peroxiredoxin A, wild type (2-CysPRXA WT) (Arabidopsis, UniProt Q96291 66-266)
T3 chain: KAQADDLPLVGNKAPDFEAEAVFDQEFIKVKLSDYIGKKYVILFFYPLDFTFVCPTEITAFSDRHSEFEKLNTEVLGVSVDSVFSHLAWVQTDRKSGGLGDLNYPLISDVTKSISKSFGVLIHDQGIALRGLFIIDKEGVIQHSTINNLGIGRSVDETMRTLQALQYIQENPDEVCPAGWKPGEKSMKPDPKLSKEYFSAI

T4: 2-cysteine peroxiredoxin A, wild type (2-CysPRXA WT) (Arabidopsis, UniProt Q96291 66-266)
T4 construct: 2-Cys peroxiredoxin A, Arabidopsis; redox state set with 10 mM DTT or 1 mM H2O2 before use; source: E. coli BL21, recombinant (pET28a)
T4 sequence (looked up): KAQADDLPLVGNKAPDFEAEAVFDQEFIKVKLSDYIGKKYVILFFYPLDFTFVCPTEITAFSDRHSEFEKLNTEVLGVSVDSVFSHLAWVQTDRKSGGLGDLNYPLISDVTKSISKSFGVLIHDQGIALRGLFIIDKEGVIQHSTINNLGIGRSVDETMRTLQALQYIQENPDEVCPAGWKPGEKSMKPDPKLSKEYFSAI


Key:
[1] = biological target: T1, 2-CysPRXA C54S (pseudo-reduced variant); assay: ITC; CP12-1 injected into 2-CysPRXA C54S under oxidizing conditions (proteins treated with 1 mM H2O2, dialysed); 35 mM HEPES pH 8.0; conditions: both partners purified
[2] = biological target: T2, 2-CysPRXA C54S (pseudo-reduced variant); assay: ITC; oxidized (unit printed as M)
[3] = biological target: T3, 2-cysteine peroxiredoxin A, wild type …; assay: ITC; reduced (unit printed as M)
[4] = biological target: T4, 2-cysteine peroxiredoxin A, wild type …; assay: ITC; LOX2 injected into 2-CysPRX WT under reducing conditions (proteins treated with 10 mM DTT, dialysed); 35 mM HEPES pH 8.0; conditions: both partners purified
[5] = biological target: T4, 2-cysteine peroxiredoxin A, wild type …; assay: cell-based or functional assay

Binder | stoichiometry N [1] | Ka [2] | Ka [3] | stoichiometry N [4] | LOX2-catalysed peroxidation of α-linolenic acid (absorbance at 234 nm), 0.5 µM LOX2 with 0.5 µM oxidized 2-CysPRXA; rate against LOX2 alone [5] | LOX2-catalysed peroxidation of α-linolenic acid (absorbance at 234 nm), 0.5 µM LOX2 with 0.5 µM reduced 2-CysPRXA; rate against LOX2 alone [5]
CHLOROPLAST PROTEIN 12-1, recombinant hisx6-tagged (natural protein, Arabidopsis thaliana, UniProt O22914 48-124, looked up, Calvin cycle protein CP12-1, Arabidopsis thaliana; also called CP12-1; CHLOROPLAST REGULATOR; source: E. coli BL21, recombinant) TSEGEISEKVEKSIQEAKETCADDPVSGECVAAWDEVEELSAAASHARDKKKAGGSDPLEEYCNDNPETDECRTYDN | ~1 | 3.91e+06 M⁻¹ | – | – | – | –
LIPOXYGENASE 2, recombinant hisx6-tagged (enzyme, Arabidopsis thaliana, UniProt P38418 71-896, looked up, Lipoxygenase 2, Arabidopsis thaliana; the limits follow from them; also called LOX2; 13-LIPOXYGENASE; source: E. coli BL21, recombinant (pET15b)) QNIKVKGYITAQEEFLEGITWSRGLDDIADIRGRSLLVELISAKTDQRITVEDYAQRVWAEAPDEKYECEFEMPEDFGPVGAIKIQNQYHRQLFLKGVELKLPGGSITFTCESWVAPKSVDPTKRIFFSDKSYLPSQTPEPLKKYRKEELETLQGKNREEVGEFTKFERIYDYDVYNDVGDPDNDPELARPVIGGLTHPYPRRCKTGRKPCETDPSSEQRYGGEFYVPRDEEFSTAKGTSFTGKAVLAALPSIFPQIESVLLSPQEPFPHFKAIQNLFEEGIQLPKDAGLLPLLPRIIKALGEAQDDILQFDAPVLINRDRFSWLRDDEFARQTLAGLNPYSIQLVEEWPLISKLDPAVYGDPTSLITWEIVEREVKGNMTVDEALKNKRLFVLDYHDLLLPYVNKVRELNNTTLYASRTLFFLSDDSTLRPVAIELTCPPNINKPQWKQVFTPGYDATSCWLWNLAKTHAISHDAGYHQLISHWLRTHACTEPYIIAANRQLSAMHPIYRLLHPHFRYTMEINARARQSLVNGGGIIETCFWPGKYALELSSAVYGKLWRFDQEGLPADLIKRGLAEEDKTAEHGVRLTIPDYPFANDGLILWDAIKEWVTDYVKHYYPDEELITSDEELQGWWSEVRNIGHGDKKDEPWWPVLKTQDDLIGVVTTIAWVTSGHHAAVNFGQYGYGGYFPNRPTTTRIRMPTEDPTDEALKEFYESPEKVLLKTYPSQKQATLVMVTLDLLSTHSPDEEYIGEQQEASWANEPVINAAFERFKGKLQYLEGVIDERNVNITLKNRAGAGVVKYELLKPTSEHGVTGMGVPYSISI | – | – | 4.18e+07 M⁻¹ | ~1 | 2.4 fold | 1.4 fold
